The values that follow come from patent US20140295512A1, “Ketol-Acid Reductoisomerases With Improved Performance Properties” (CALIFORNIA INSTITUTE OF TECHNOLOGY, priority 2011, published 2014).

A short description of data set [1]: KARI assay in 1-mL scale to measure NADPH KM value (Example 5). The class given is biochemical. The note with it: for Km: Example 5, pH 7.0. As for the experimental part:
(§1) KARI activity was assayed kinetically by monitoring the decrease in NADPH or NADH concentration by measuring the change in absorbance at 340 nm. An assay buffer was prepared containing 100 mM potassium phosphate pH 7.0, 1 mM DTT, 2.5 mM (S)-2-acetolactate, and 10 mM MgCl2 (final concentrations in the 1-mL assay). Twenty μL purified enzyme and 960 μL of the assay buffer were placed into a 1-mL cuvette. The reaction was initiated by addition of 20 μL NADPH or NADH (200 μM final concentration) for a general activity assay. Michaelis-Menten constants for the cofactors were determined with varying concentrations of NADPH or NADH (200-12 μM final).

Data set [2] has as its system S. cerevisiae host strain GEVO3956. Kind of data set: Shake flask isobutanol fermentations with KARI as limiting pathway enzyme. The note with it: mean of 3 experiments. Type of data set: cell-based. An excerpt:
In this example, a series of KARI genes were individually expressed from a yeast promoter in conjunction with other components of an isobutanol production pathway in yeast such that KARI was the limiting enzyme in the pathway and the amount of isobutanol produced during a fermentation was dependent on the KARI activity level. In this system, the S. cerevisiae host strain GEVO3956 was used to produce isobutanol when supplied with an isobutanol production pathway plasmid expressing ALS and KIVD, and a low copy number plasmid expressing KARI, DHAD, and ADH enzymes.
Shake flask fermentations using GEVO3956 carrying these individual plasmids were performed together with GEVO3956 carrying pGV3022 (derived from pGV3009 but containing the E. coli ilvC-coSc gene expressed from the Sc_PDC1^−350 promoter) and GEVO3956 carrying pGV3012 (equivalent to pGV3009 lacking the Sc_PDC1^−350 promoter and KARI gene) for comparison of isobutanol production. The shake flask fermentations were performed as follows. The strains were grown overnight in 3 mL of YPD medium containing 1% v/v ethanol and 0.1 g/L G418 at 30° C. and 250 rpm. The OD600 of these cultures was determined after overnight growth and the appropriate amount of culture was added to 50 mL of YP medium containing 5% w/v glucose, 1% v/v ethanol. 200 mM MES, pH 6.5, and 0.1 g/L G418 to obtain an OD600 of 0.1 in 250 mL baffled flasks with sleeve caps. Cultures were incubated at 30° C. and 250 rpm overnight. The OD600 of these cultures was determined after overnight growth and the appropriate amount of culture to total 250 ODs was added to 50 mL Falcon tubes and centrifuged at 2700×g for 5 minutes. The supernatant was removed and cells were resuspended in 50 mL of YP medium containing 8% w/v glucose, 1% v/v ethanol, 200 mM MES, pH 6.5, and 0.1 g/L G418 to obtain a final OD600 of 5 OD per ml. At t=0 the OD600 of each flask was determined. The fermentation cultures were incubated at 30° C. and 250 rpm in non-baffled 250 mL flasks with vented screw cap tops. After 24, 48 and 72 hours of incubation, 1.5 mL of culture was removed into 1.5 mL microcentrifuge tubes from each culture. OD600 values were determined from the samples and the remainder of each sample was centrifuged for 10 min at 14,000 rpm in a microcentrifuge and 1 mL of the supernatant was removed to be submitted for gas chromatographic analysis. Analysis of volatile organic compounds, including ethanol and isobutanol, was performed on an Agilent 6890 gas chromatograph (GC) fitted with a 7683B liquid autosampler, a split/splitless injector port, a ZB-FFAP column (Phenomenex 30 m length, 0.32 mm ID, […] film thickness) connected to a flame ionization detector (FID). […]

Data set [3] is described as follows: KARI assay in 1-mL scale to measure NADH KM value (Example 5). Type of data set: biochemical. The note with it: for Km: Example 5, pH 7.0. As for the experimental part:
as §1

Data set [4] can be described thus: KARI assay in 100-μL scale to measure acetolactate KM value. The class given is biochemical. Conditions: for Km: NADPH, pH 7.0, read-out: KM (S)-2-acetolactate. Here is the method:
An assay buffer was prepared containing 100 mM potassium phosphate pH 7.0, 1 mM DTT, 10 mM MgCl2, and 200 μM NADPH (final concentrations). Five μL purified enzyme and 5 μL of varying concentrations of acetolactate (8-0.125 mM final) were placed into a flat-bottom assay plate (Evergreen Scientific). The reactions were initiated by addition of 90 μL assay buffer. The change in absorbance at 340 nm was monitored over 1 min in a plate reader (TECAN).

The nature of data set [5]: KARI assay in 100-μL scale to measure pH optimum. The class given is biochemical. The note with it: pH 6.0-8.5, NADPH. Here is the method:
Assay buffers were prepared containing 100 mM potassium phosphate with pH values ranging from 6.0-8.5 in 0.5-steps, 1 mM DTT, 10 mM MgCl2, 2.5 mM acetolactate, and 200 μM NADPH (final concentrations). Ten μL purified enzyme were placed into a flat-bottom assay plate (Evergreen Scientific). The reactions were initiated by addition of 90 μL assay buffer. The change in absorbance at 340 nm was monitored over 1 min in a plate reader (TECAN).

B1: E. coli IlvC: Escherichia coli ketol-acid reductoisomerase (ilvC), wild type (protein, UniProt P05793 2-491, looked up)
Ketol-acid reductoisomerase …: ANYFNTLNLRQQLAQLGKCRFMGRDEFADGASYLQGKKVVIVGCGAQGLNQGLNMRDSGLDISYALRKEAIAEKRASWRKATENGFKVGTYEELIPQADLVINLTPDKQHSDVVRTVQPLMKDGAALGYSHGFNIVEVGEQIRKDITVVMVAPKCPGTEVREEYKRGFGVPTLIAVHPENDPKGEGMAIAKAWAAATGGHRAGVLESSFVAEVKSDLMGEQTILCGMLQAGSLLCFDKLVEEGTDPAYAEKLIQFGWETITEALKQGGITLMMDRLSNPAKLRAYALSEQLKEIMAPLFQKHMDDIISGEFSSGMMADWANDDKKLLTWREETGKTAFETAPQYEGKIGEQEYFDKGVLMIAMVKAGVELAFETMVDSGIIEESAYYESLHELPLIANTIARKRLYEMNVVISDTAEYGNYLFSYACVPLLKPFMAELQPGDLGKAIPEGAVDNGQLRDVNEAIRSHAIEQVGKKLRGYMTDMKRIAVAG
Broadly, the Km is the substrate concentration at which the rate is half of its maximum. For B1, in data set [1], the “NADPH KM, times higher than NADPH KM for S. exigua KARI” value was approximately 20 fold and the Km amounted to 20 ± 3 µM. Further, in data set [2], the “48 h isobutanol Titer” value was 3.93 ± 1.16 g/L and the “72 h isobutanol Titer” value was 4.72 ± 0.90 g/L. Further, in data set [3], the “NADH KM, times higher than NADH KM for S. exigua KARI” value worked out at 22 fold and the Km was determined as 1000 µM. Also, in data set [3] (listed as E. coli KARI), the Km was approximately 1000 µM. In addition, in data set [4], the “KM for acetolactate, times higher than KM of S. exigua KARI” value is recorded as 32 fold; the “KM, fold higher than the Ki for R-DHIV” value stood at 3 fold; the Km turned out to be 300 ± 100 µM. In addition, in data set [5], the “optimum pH” value is 7.5.

B2: Se1_KARI: Slackia exigua (ATCC 700122) ketol-acid reductoisomerase, wild type, SEQ ID NO: 2 (protein, listed as Slackia exigua)
chain: MSVKTKEKEMAVTILYEQDVDPKVIQGLKVGIIGYGSQGHAHALNLMDSGVDVRVGLREGSSSWKTAEEAGLKVTDMDTAAEEADVIMVLVPDEIQPKVYQEHIAAHLKAGNTLAFAHGFNIHYGYIVPPEDVNVIMCAPKGPGHIVRRQFTEGSGVPDLACVQQDATGNAWDIVLSYCWGVGGARSGIIKATFAEETEEDLFGEQAVLCGGLVELVKAGFETLTEAGYPPELAYFECYHEMKMIVDLMYESGIHFMNYSISNTAEYGEYYAGPKVINEQSREAMKEILKRIQDGSFAQEFVDDCNNGHKRLLEQREAINTHPIETTGAQIRSMFSWIKKED
In the case of B2, the Km in data set [1] is less than 1 µM; in data set [3] it was 45 ± 10 µM; in data set [4], 170 µM. Further, the “48 h isobutanol Titer” value in data set [2] stood at 2.82 ± 0.11 g/L. For the same molecule, the “72 h isobutanol Titer” value in data set [2] was found to be 4.40 ± 0.34 g/L. Moreover, the “kcat with NADH” value in data set [3] (Example 5) is 0.4 s⁻¹. For the same molecule, in data set [4], the “KM, fold lower than the Ki for R-DHIV” value came out at 10 fold. Besides, the figures for the “optimum pH” value in data set [5] and in data set [5] (listed as S. exigua KARI) were 7 and “approximately 7.0”, respectively.
